In this experiment the target is human tumor necrosis factor-alpha (hTNFα) (human) (UniProt P01375). As to the kind of experiment: cell-based or functional assay.
Chain of human tumor necrosis factor-alpha (hTNFα) (human) (P01375 77-233): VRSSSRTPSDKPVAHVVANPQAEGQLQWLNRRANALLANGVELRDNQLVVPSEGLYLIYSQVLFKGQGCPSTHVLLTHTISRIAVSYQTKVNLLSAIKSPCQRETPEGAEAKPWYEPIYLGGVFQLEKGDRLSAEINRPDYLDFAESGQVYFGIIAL

B1: chimeric mouse/human IgG1 anti-platelet mAb (7E3) (antibody, INN chains, looked up, V domains shown)
VH: EVQLQQSGTVLARPGASVKMSCEASGYTFTNYWMHWVKQRPGQGLEWIGAIYPGNSDTSYIQKFKGKAKLTAVTSTTSVYMELSSLTNEDSAVYYCTLYDGYYVFAYWGQGTLVTVSA
VL: EIVLTQSPVTLSVTPGDSVSLSCRASRDISNNLHWFQQTSHESPRLLIKYASQSMSGIPSRFSGSGSGTDFTLSINSVETEDFGMYFCQQTNSWPYTFGGGTKLEIK
modifications: IgG1
Molecule B1 came in with an IL-6 secreted by FS-4 fibroblasts; 4 µg/ml antibody, rhTNF 0.3 ng/ml of 1.6 ng/mL; an IL-6 secreted by FS-4 fibroblasts; 4 µg/ml antibody, rhTNF 1.5 ng/ml of 1.96 ng/mL; an IL-6 secreted by FS-4 fibroblasts; 4 µg/ml antibody, rhTNF 7.5 ng/ml of 2.16 ng/mL.

The record behind these values is US20060140946A1.
